Assay: FRET or BRET; DAmFRET: mEos3.1 fusions expressed in S. cerevisiae, galactose induction 20 hr with 100 uM MG132, partial photoconversion of mEos3.1, flow cytometry; AmFRET between copies of the same protein against its intracellular concentration (approximately 2 to 200 uM)

**Q.** For “MBP fused to mEos3.1 and poly-TA (28 residues, two continuous TA tracts of length 12)”, which fold increase of Csat against poly-TA without the solubility tag is on record?
**A.** The fold increase of Csat against poly-TA without the solubility tag was over 10 fold.
